Measured values taken from patent publication US20140274782A1, “AFFINITY REAGENTS AND METHODS FOR DETECTION, PURIFICATION, AND PROTEOMIC ANALYSIS OF METHYLATED PROTEINS” (The Board of Trustees of the Leland Stanford Junior …, priority 2013, published 2014).

T1: G9a and GLP (Homo sapiens, UniProt Q96KQ7+Q9H9B1)
T1 sequence (Q96KQ7 2-1210 limits assumed): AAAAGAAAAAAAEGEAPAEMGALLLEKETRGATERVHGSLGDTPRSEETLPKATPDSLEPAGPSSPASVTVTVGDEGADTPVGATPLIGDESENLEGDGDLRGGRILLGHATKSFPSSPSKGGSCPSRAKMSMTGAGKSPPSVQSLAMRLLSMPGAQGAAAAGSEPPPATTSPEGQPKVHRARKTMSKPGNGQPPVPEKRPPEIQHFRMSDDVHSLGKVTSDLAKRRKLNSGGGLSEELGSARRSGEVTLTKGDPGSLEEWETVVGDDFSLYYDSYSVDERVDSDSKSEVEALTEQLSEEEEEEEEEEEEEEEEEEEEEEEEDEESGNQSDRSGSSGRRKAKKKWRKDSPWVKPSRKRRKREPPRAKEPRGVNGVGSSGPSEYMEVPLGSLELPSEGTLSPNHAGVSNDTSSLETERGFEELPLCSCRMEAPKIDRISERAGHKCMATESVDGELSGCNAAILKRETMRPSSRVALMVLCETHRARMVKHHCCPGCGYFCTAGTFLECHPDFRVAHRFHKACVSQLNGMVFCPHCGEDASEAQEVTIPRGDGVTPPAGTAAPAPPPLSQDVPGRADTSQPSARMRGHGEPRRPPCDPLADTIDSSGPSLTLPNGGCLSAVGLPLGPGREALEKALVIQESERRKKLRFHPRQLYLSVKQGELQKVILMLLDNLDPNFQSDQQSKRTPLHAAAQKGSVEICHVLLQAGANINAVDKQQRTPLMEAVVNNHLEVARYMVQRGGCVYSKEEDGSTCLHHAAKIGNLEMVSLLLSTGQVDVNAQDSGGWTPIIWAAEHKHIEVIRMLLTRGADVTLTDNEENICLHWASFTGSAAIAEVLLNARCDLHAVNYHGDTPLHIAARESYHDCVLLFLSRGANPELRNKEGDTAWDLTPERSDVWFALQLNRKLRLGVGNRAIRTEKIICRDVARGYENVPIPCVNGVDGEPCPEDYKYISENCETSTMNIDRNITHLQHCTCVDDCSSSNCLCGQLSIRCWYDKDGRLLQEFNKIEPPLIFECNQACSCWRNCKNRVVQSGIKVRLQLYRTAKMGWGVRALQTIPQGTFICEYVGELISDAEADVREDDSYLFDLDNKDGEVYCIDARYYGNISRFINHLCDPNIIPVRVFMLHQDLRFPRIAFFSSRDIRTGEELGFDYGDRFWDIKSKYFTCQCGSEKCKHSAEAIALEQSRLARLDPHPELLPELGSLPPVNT
T1 sequence (Q9H9B1 2-1298 limits assumed): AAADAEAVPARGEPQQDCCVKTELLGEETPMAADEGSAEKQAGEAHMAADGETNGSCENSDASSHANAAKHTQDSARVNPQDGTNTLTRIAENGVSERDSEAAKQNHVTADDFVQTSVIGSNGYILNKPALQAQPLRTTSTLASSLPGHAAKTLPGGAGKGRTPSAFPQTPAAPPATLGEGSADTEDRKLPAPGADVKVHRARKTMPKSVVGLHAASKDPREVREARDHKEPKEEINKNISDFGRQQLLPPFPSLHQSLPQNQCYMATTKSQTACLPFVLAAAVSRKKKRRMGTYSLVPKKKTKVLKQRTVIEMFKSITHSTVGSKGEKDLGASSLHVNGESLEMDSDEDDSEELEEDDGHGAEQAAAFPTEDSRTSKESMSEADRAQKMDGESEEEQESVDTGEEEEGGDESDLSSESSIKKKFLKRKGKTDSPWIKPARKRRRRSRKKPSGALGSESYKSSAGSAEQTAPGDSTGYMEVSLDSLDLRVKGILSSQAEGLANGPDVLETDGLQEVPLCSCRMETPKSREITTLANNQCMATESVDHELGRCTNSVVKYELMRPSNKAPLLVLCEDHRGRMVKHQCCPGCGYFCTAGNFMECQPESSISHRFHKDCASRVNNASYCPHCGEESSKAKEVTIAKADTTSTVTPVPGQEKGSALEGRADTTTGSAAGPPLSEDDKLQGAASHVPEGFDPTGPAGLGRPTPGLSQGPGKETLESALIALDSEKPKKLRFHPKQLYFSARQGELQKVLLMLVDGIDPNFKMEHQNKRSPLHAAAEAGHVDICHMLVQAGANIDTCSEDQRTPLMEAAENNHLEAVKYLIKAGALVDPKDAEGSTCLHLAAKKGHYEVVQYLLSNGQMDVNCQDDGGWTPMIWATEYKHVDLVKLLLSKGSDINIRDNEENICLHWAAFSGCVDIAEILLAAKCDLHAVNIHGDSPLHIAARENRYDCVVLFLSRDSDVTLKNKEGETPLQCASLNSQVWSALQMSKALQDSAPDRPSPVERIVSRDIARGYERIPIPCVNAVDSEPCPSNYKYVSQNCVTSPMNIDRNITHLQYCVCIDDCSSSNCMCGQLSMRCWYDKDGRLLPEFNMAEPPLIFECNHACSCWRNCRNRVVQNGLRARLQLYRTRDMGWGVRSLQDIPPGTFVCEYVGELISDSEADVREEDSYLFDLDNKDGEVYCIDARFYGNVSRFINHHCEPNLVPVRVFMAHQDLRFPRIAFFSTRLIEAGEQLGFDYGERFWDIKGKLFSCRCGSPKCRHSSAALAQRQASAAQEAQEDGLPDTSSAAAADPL


Columns and labels:
3×MBT domain of L3MBTL1 = test: Triple SILAC pull-down, 3xMBT/3xMBTD355N ratio (cytoplasmic, nuclear and chromatin fractions of 293T cells); assay type: binding, human; details: SILAC ratio 3xMBT vs 3xMBTD355N pull-down, 293T cells, all values in log base 2; for 3xMBT/D355N UNC Heavy: experiment with UNC0638 in heavy SILAC media; for 3xMBT/D355N UNC Light: experiment with UNC0638 in light SILAC media;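 for all read-outs here: proteins quantified with MaxQuant, requiring at least two unique peptides and quantification in both label directions, normalized to the mean of proteins from a digested loading control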
G9a and GLP = molecular target: T1, G9a and GLP; test: Triple SILAC pull-down after UNC0638 treatment of 293T cells, DMSO/UNC0638 ratio of protein captured by 3×MBT; assay type: cell-based; set-up: endogenous in cells; host or cells: HEK 293T; details: all values in log base 2; for Relative to UNC0638 UNC Heavy / Relative to UNC0638 UNC Light: SILAC ratio DMSO relative to UNC0638, pull-down with 3xMBT; for Relative to UNC0638 UNC Heavy: UNC0638 in heavy SILAC media; for Relative to UNC0638 UNC Light: UNC0638 in light SILAC media; for Relative to UNC0638 Average: average of UNC Light and UNC Heavy experiments;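 for all read-outs here: mass spectrometry (Q-Exactive) SILAC quantitation, DMSO/UNC0638 ratio computed after subtracting 3×MBTD355N mutant pull-down background, only proteins with at least twofold 3×MBT over mutant signal considered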

Relative to UNC0638 UNC Heavy (G9a and GLP) [log base 2] | Relative to UNC0638 UNC Light (G9a and GLP) [log base 2] | Relative to UNC0638 Average (G9a and GLP) [log base 2] | Molecule | 3xMBT/D355N UNC Heavy (3×MBT domain of L3MBTL1) [log base 2] | 3xMBT/D355N UNC Light (3×MBT domain of L3MBTL1) [log base 2]
−0.19 | 0.21 | 0.01 | IARS (protein, UniProt P41252 1-1262, looked up) Isoleucine--tRNA ligase, …: MLQQVPENINFPAEEEKILEFWTEFNCFQECLKQSKHKPKFTFYDGPPFATGLPHYGHILAGTIKDIVTRYAHQSGFHVDRRFGWDCHGLPVEYEIDKTLGIRGPEDVAKMGITEYNNQCRAIVMRYSAEWKSTVSRLGRWIDFDNDYKTLYPQFMESVWWVFKQLYDKGLVYRGVKVMPFSTACNTPLSNFESHQNYKDVQDPSVFVTFPLEEDETVSLVAWTTTPWTLPSNLAVCVNPEMQYVKIKDVARGRLLILMEARLSALYKLESDYEILERFPGAYLKGKKYRPLFDYFLKCKENGAFTVLVDNYVKEEEGTGVVHQAPYFGAEDYRVCMDFNIIRKDSLPVCPVDASGCFTTEVTDFAGQYVKDADKSIIRTLKEQGRLLVATTFTHSYPFCWRSDTPLIYKAVPSWFVRVENMVDQLLRNNDLCYWVPELVREKRFGNWLKDARDWTISRNRYWGTPIPLWVSDDFEEVVCIGSVAELEELSGAKISDLHRESVDHLTIPSRCGKGSLHRISEVFDCWFESGSMPYAQVHYPFENKREFEDAFPADFIAEGIDQTRGWFYTLLVLATALFGQPPFKNVIVNGLVLASDGQKMSKRKKNYPDPVSIIQKYGADALRLYLINSPVVRAENLRFKEEGVRDVLKDVLLPWYNAYRFLIQNVLRLQKEEEIEFLYNENTVRESPNITDRWILSFMQSLIGFFETEMAAYRLYTVVPRLVKFVDILTNWYVRMNRRRLKGENGMEDCVMALETLFSVLLSLCRLMAPYTPFLTELMYQNLKVLIDPVSVQDKDTLSIHYLMLPRVREELIDKKTESAVSQMQSVIELGRVIRDRKTIPIKYPLKEIVVIHQDPEALKDIKSLEKYIIEELNVRKVTLSTDKNKYGIRLRAEPDHMVLGKRLKGAFKAVMTSIKQLSSEELEQFQKTGTIVVEGHELHDEDIRLMYTFDQATGGTAQFEAHSDAQALVLLDVTPDQSMVDEGMAREVINRIQKLRKKCNLVPTDEITVYYKAKSEGTYLNSVIESHTEFIFTTIKAPLKPYPVSPSDKVLIQEKTQLKGSELEITLTRGSSLPGPACAYVNLNICANGSEQGGVLLLENPKGDNRLDLLKLKSVVTSIFGVKNTELAVFHDETEIQNQTDLLSLSGKTLCVTAGSAPSLINSSSTLLCQYINLQLLNAKPQECLMGTVGTLLLENPLGQNGLTHQGLLYEAAKVFGLRSRKLKLFLNETQTQEITEDIPVKTLNMKTVYVSVLPTTADF | 2.10 | 2.25
0.03 | −0.03 | 0.00 | RBM39 (protein, UniProt Q14498 2-530, looked up) RNA-binding protein 39: ADDIDIEAMLEAPYKKDENKLSSANGHEERSKKRKKSKSRSRSHERKRSKSKERKRSRDRERKKSKSRERKRSRSKERRRSRSRSRDRRFRGRYRSPYSGPKFNSAIRGKIGLPHSIKLSRRRSRSKSPFRKDKSPVREPIDNLTPEERDARTVFCMQLAARIRPRDLEEFFSTVGKVRDVRMISDRNSRRSKGIAYVEFVDVSSVPLAIGLTGQRVLGVPIIVQASQAEKNRAAAMANNLQKGSAGPMRLYVGSLHFNITEDMLRGIFEPFGRIESIQLMMDSETGRSKGYGFITFSDSECAKKALEQLNGFELAGRPMKVGHVTERTDASSASSFLDSDELERTGIDLGTTGRLQLMARLAEGTGLQIPPAAQQALQMSGSLAFGAVAEFSFVIDLQTRLSQQTEASALAAAASVQPLATQCFQLSNMFNPQTEEEVGWDTEIKDDVIEECNKHGGVIHIYVDKNSAQGNVYVKCPSIAAAIAAVNALHGRWFAGKMITAAYVPLPTYHNLFPDSMTATQLLVPSRR | 2.04 | 0.93
0.19 | −0.24 | −0.02 | DHX36 (protein, UniProt Q9H2U1 1-1008, looked up) ATP-dependent DNA/RNA …: MSYDYHQNWGRDGGPRSSGGGYGGGPAGGHGGNRGSGGGGGGGGGGRGGRGRHPGHLKGREIGMWYAKKQGQKNKEAERQERAVVHMDERREEQIVQLLNSVQAKNDKESEAQISWFAPEDHGYGTEVSTKNTPCSENKLDIQEKKLINQEKKMFRIRNRSYIDRDSEYLLQENEPDGTLDQKLLEDLQKKKNDLRYIEMQHFREKLPSYGMQKELVNLIDNHQVTVISGETGCGKTTQVTQFILDNYIERGKGSACRIVCTQPRRISAISVAERVAAERAESCGSGNSTGYQIRLQSRLPRKQGSILYCTTGIILQWLQSDPYLSSVSHIVLDEIHERNLQSDVLMTVVKDLLNFRSDLKVILMSATLNAEKFSEYFGNCPMIHIPGFTFPVVEYLLEDVIEKIRYVPEQKEHRSQFKRGFMQGHVNRQEKEEKEAIYKERWPDYVRELRRRYSASTVDVIEMMEDDKVDLNLIVALIRYIVLEEEDGAILVFLPGWDNISTLHDLLMSQVMFKSDKFLIIPLHSLMPTVNQTQVFKRTPPGVRKIVIATNIAETSITIDDVVYVIDGGKIKETHFDTQNNISTMSAEWVSKANAKQRKGRAGRVQPGHCYHLYNGLRASLLDDYQLPEILRTPLEELCLQIKILRLGGIAYFLSRLMDPPSNEAVLLSIRHLMELNALDKQEELTPLGVHLARLPVEPHIGKMILFGALFCCLDPVLTIAASLSFKDPFVIPLGKEKIADARRKELAKDTRSDHLTVVNAFEGWEEARRRGFRYEKDYCWEYFLSSNTLQMLHNMKGQFAEHLLGAGFVSSRNPKDPESNINSDNEKIIKAVICAGLYPKVAKIRLNLGKKRKMVKVYTKTDGLVAVHPKSVNVEQTDFHYNWLIYHLKMRTSSIYLYDCTEVSPYCLLFFGGDISIQKDNDQETIAVDEWIVFQSPARIAHLVKELRKELDILLQEKIESPHPVDWNDTKSRDCAVLSAIIDLIKTQEKATPRNFPPRFQDGYYS | 1.95 | 2.83
